Biological target: Flt1/VEGFR1 (human) (UniProt P17948)
Assay: cell-based or functional assay

Sequence of UniProt P17948 (P17948 27-1338): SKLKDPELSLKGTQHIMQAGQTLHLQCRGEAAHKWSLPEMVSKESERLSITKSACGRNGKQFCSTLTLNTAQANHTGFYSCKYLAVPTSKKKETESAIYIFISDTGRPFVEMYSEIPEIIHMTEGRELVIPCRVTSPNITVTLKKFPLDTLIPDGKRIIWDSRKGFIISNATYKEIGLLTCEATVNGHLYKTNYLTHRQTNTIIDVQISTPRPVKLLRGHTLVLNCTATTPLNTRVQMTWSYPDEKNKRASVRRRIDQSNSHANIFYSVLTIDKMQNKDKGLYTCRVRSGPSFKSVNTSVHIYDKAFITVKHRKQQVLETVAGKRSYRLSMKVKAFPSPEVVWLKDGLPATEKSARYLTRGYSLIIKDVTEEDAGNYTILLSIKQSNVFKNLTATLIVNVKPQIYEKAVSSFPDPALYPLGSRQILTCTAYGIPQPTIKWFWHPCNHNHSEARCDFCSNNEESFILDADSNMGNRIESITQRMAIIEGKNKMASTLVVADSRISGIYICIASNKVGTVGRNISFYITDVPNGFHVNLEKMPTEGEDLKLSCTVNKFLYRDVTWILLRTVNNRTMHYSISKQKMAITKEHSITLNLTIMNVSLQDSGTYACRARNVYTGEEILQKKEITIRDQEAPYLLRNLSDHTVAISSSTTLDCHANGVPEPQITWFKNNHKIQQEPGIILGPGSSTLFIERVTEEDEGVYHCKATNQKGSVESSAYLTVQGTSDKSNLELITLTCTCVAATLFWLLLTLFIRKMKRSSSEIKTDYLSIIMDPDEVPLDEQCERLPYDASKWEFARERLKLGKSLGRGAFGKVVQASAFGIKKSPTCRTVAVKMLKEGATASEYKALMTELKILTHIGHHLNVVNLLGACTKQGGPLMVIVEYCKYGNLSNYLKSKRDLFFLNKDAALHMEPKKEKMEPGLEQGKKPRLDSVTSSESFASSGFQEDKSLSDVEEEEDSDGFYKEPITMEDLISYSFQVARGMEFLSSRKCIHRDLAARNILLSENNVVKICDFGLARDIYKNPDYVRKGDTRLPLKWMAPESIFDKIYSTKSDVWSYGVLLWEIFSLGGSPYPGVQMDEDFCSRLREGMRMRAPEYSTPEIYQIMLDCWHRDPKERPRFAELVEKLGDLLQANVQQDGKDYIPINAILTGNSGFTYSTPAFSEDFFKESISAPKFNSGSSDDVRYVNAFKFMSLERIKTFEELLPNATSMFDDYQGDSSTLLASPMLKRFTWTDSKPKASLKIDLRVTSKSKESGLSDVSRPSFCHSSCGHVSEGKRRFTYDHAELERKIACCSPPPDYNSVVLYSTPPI

PlGF (ligand)
HUVEC buds containing multiple filopodia: 250%

From patent US7662919
